# The DeepSol protein solubility set
# Assay: soluble on expression in E. coli; label from the status in PepcDB or PDB records
row,Sequence,soluble on expression in E. coli
1,ATKEFIYLVRGMTPEQGQAALDLKVPGVYGIEEFRRFYPAGDVTAHMVGFTDLDDHGREGVELAYDDWLAGVPGKRQVIKDRRGRLIKDVQVTKNAKAGKTLALSID,not soluble
2,ATPSRKQRVSTLWISDVHLGTRDCQAEHLSAFLKRYQADKVYLVGDIIDGWKLRGGMYWPQAHTNVIRRLLTMSKRGTEVIYVTGNHDEFLRRYSKLVLGNIQLVDEAEHVTAEGRRLLVIHGDQFDVITRYHRWLAFLGDSAYEFTLTLNRWLNHWRAKYGYGYWSLSAYLKHKVKSAVNFISDFEEAIAHECVKRGLDGVVCGHIHHAEIRQVGGVEYLNCGDWVESCTALIEHLDGTIELFRLADAHLKASQPV,not soluble
3,ATQRFLIEKFSQEQIGENIVCRVICTTGQIPIRDLSADISQVLKEKRSIKKVWTFGRNPACDYHLGNISRLSNKHFQILLGEDGNLLLNDISTNGTWLNGQKVEKNSNQLLSQGDEITVGVGVESDILSLVIFINDKFKQCLEQNKVDRIR,soluble
4,ATSYMTCSAYQKVQDSEISFPAGVEVQVLEKQESGWWYVRFGELEGWAPSHYLVLDENEQPDPSGKE,soluble
5,AVSGLYSSSDDVIELTPSNFNREVIQSDGLWLVEFYAPWCGHCQRLTPEWKKAATALKDVVKVGAVNADKHQSLGGQYGVQGFPTIKIFGANKNKPEDYQGGRTGEAIVDAALSALR,soluble
6,AVSSATLEMESQRDEVAGLVRLGLSQSFGTLHIIPAIQELRELYPQLQVEVHLFDYKVDMLAEGLDLWVTNNEHLPEGYIAQRLTDCQFVVAASPDYLLKYDTPTEPNDLSLHNCLIYRSWERDYTGWAFTKGQQELNVKVSGNYSVDLAEAVRDAAIAGWGIAYLATYLLGDEFRTGKLIQLLPDWKASQSMPFYAVYPSRQHMPKKISAVINFIKQKIGNPCHWDQRLAPYISIPK,not soluble
7,DAYIGVLIDDLVTKGTNEPYRLLTSRAEYRLLLRHDNADLRLTDMGYELGMISEERYARFNEKRQQIDAEIKRLSDIRIKPNEHTQAIIEQHGGSRLKDGILAIDLLRRPEMTYDIILEILEEEHQLNADVEEQVEIQTKYEGYINKSLQQVEKVKRMEEKKIPEDLDYSKIDSLATEAREKLSEVKPLNIAQASRISGVNPADISILLIYLEQG,not soluble
8,DDFEDSLEYLEPLDHDAYIVRLNFTGENTTEPIISYMTKTHNIDVNILEADIKNTKNGSLGFLVIHIPHISEEHFKQFKHNLHEQHVNVEVLKHG,not soluble
9,DGPYLQILEQPKQRGFRFRYVCEGPSHGGLPGASSEKNKKSYPQVKICNYVGPAKVIVQLVTNGKNIHLHAHSLVGKHCEDGVCTVTAGPKDMVVGFANLGILHVTKKKVFETLEARMTEACIRGYNPGLLVHSDLAYLQAEGGGDRQLTDREKEIIRQAAVQQTKEMDLSVVRLMFTAFLPDSTGSFTRRLEPVVSDAIYDSKAPNASNLKIVRMDRTAGCVTGGEEIYLLCDKVQKDDIQIRFYEEEENGGVWEGFGDFSPTDVHRQFAIVFKTPKYKDVNITKPASVFVQLRRKSDLETSEPKPFLYYPEIKDKEEVQRKRQK,soluble
10,DGSPAATPEIRVNHEPEPAGGATPGATLPKSPSQLRKGPPVPPPPKHTPSKEVKQEQILSLFEDTFVPEISVTTPSQPAEASEVAGGTQPAAGAQEPGETAASEAASSSLPAVVVETFPATVNGTVEGGSGAGRLDLPPGFMFKVQAQHDYTATDTDELQLKAGDVVLVIPFQNPEEQDEGWLMGVKESDWNQHKKLEKCRGVFPENFTERVP,soluble
11,DGTSQLAELVDAAAERLEVADPVAAFKWRAQLPIEDSGRVEQQLAKLGEDARSQHIDPDYVTRVFDDQIRATEAIEYSRFSDWKLNPASAPPEPPDLSASRSAIDSLNNRMLSQIWSHWSLLSAPSCAAQLDRAKRDIVRSRHLDSLYQRALTTATQSYCQALPPA,soluble
12,DITGIPTGFTELDRMTAGFQRNDLIIVAARPSVGKTAFALNIAQNVATKTDESVAIFSLEMGAEQLVMRMLCAEGNINAQNLRTGNLTEEDWGKLTMAMGSLSNSGIYIDDTPGIRVSEIRAKCRRLKQESGLGMILIDYLQLIQGSGRSKDNRQQEVSEISRELKSIARELQVPVIALSQLSRGVEQRQDKRPMMSDI,not soluble
13,DIVLTQSPTTMAASPGEKITITCSASSSISSNYLHWYQQKPGFSPKLLIYRTSNLASGVPARFSGSGSGTSYSLTIGTMEAEDVATYYCQQGSSIPLTFGAGTKLELKRADAAPTVSIFPPSSEQLTSGGASVVCFLNNFYPKDINVKWKIDGSERQNGVLNSWTDQDSKDSTYSMSSTLTLTKDEYERHNSYTCEATHKTSTSPIVKSFNRNEC,soluble
14,DIVMTQTPKFLLVSAGDKVTITCKASQSVSNDLTWYQQKPGQSPKLLIYYASNRYTGVPDRFTGSGYGTDFTFTISTVQAEDLAVYFCQQDYGSPPTFGGGTKVEIKRTVAAPSVFIFPPSDEQLKSGTASVVCLLNNFYPREAKVQWKVDNALQSGNSQESVTEQDSKDSTYSLSSTLTLSKADYEKHKVYACEVTHQGLSSPVTKSFNRGEC,soluble
15,DKLTRQPFFIKLINYLQIHDDVTLRQIKRNFADTEHLERSIEDYVQAGYVLRENKHYYNAFELLENLDGLTLDSQIFVDDQSSIYQDLLALTFETYLSNQTNAALIIEKTDISRDALTLSNYFFKLNENFPLSRKQKPLYHLLGDVNPNYALKYMTTFLLKFWGKDVVKQKRPDIFVQALVLLGYLEQVGKQSYCLKMTFDKEKLIFAS,soluble
16,DLRGDLHMHTDYSEGAESLETMVEKAESMGYEYIAVTDHSRSQRIANGMDIETLKEQWKEIKSLSKRFRIKVLRGSEVEILKDGSLDYPDEILKELDVVVGAVHSGFAASEREMTGRIITALENKHLDILAHPSGRLLGKREAYAVNFGKVFEAAAENGKVMEINCQPSRLDLNDELIFRAKDYELKFCISTDSHSVSDLASMRYGLGQARRSWLEKEDIVNTYPYSRLKEVFKKLRD,not soluble
17,DPHAYEHNLKSWVGNTPVFATVNQLDLDEEQSTLLKGEVGVDWYWMGYEAGKYLAERHPKGSGKTNIALLLGPRTRGGTKPVTTGFYEAIKNSDIHIVDSFWADNDKELQRNLVQRVIDMGNIDYIVGSAVAIEAAISELRSADKTHDIGLVSVYLSHGVYRGLLRNKVLFAPTDKMVQQGRLSVMQAAHYLRHQPYEKQASPIIKPLTPKTLHDDTIEESLSPSEYRPTFSIKAVD,not soluble
18,DPVSDITDLNYWKTPEQFDSFVFGLHSRFRSHSWNMFLLGEARSDVFGGIPFGGEATQGMERFPYNTLNAENPGISGFGDLYQNINQMNLFISRTLHTDVLTESARNYYLGQVYGLRAYYMYQLYRSWGDVVFTEEPSLGFEVGKLAKAATPAAEIFEQVKKDIESSLSYFGSDYTIKEKKSLWSKAATLMLKADVYLWSAHRDGGEGDARTAKNALVDIQNNISRSNLDLMDTYQGVFAYDNKGNKEIIFTIHNELFEYNLWNGNNDLFPQADYLGKFYNADGTLINTSVENNFGIMRLMVKLENFKKFLPGDTRRDVTLKDVYNKVENGKLELVGVYPHKYWGVMNGSTRVRCDDYPIYRYSDLLLMLAEAKVLLGEDPATEINRVRRRAFGDAYDASTVGFPNQEVDKRPADAVLQERLFEFMLEGKRWYDLRRFGDSYVLDYTPAEPARLLWPINQGALTNNPLLKQTVGY,soluble
19,DQRRRFIEAVLSGVTAAVIGVGRDRRITIFNPSSEGMLKKAAPELIGANLSDVAPEIEAVLVEAESRYRNDYRKQINIMRGGTERTMNVQVTREEGDESHGSYVITVDDIT,not soluble
20,DRQREAAQPAASQSASAMEANPTPAPDRSTSTSLFGDSDSAPRHRLNEEPAARRTSHDSEGMYTRRSVPRESYRDQRSDDFDDDLDIPDFLR,not soluble
21,DSYPDSQIEIRTLVGPYENTLVFRDTGPGIDDSILHKIFDDFFSFQKSGGSGLGLGYCQRVMRSFGGRIECKSVTNEFTEFYLHFPVVPNAPKVETLRTPNFYNWNQKVKTK,not soluble
22,DTGTISTEEFYNFDNWKGFGYELFEDWSRWVYDWLPDGWNLWKELDRNRSGQYHIYDPLALDLDGDGIETVAAKGFSGSLFDHNGNGIRTATGWVSADDGLLVRDLNGNGIIDNGAELFGDNTKLADGSFAKHGYAALAELDSNGDNIINAADAAFQSLRVWQDLNQDGISQANELRTLEELGIQSLDLAYKDVNKNLGNGNTLAQQGSYTKTDGTTAKMGDLLLAADNLHSRFTNKMLSISHVRENTISPFVLGCLNK,not soluble
23,DVTPRRDAEYPPPEFLEAMKPLREICIKKTGVTEEAIIEFSDGKVHEDENLKCYMNCLFHEAKVVDDTGHVHLEKLHDALPDSMHDIALHMGKRCLYPEGENLCEKAFWLHKCWKESDPKHYFLI,soluble
24,EDPFQPEIKVRCVCGNSLETDSMIQVIWDELTAFIPCEDPRCHVWQHVGCVILPDKPMDGNPPLPESFYCEICRLT,soluble
25,EEILGSLFLKKKKKKKKKKSRNHRYFALLLPIRKMKKFFDSRREQGGSGLGSGSSGGGGSTSGLGSGYIGRVFGIGRQQVTVDEVLAEGGFAIVFLVRTSNGMKCALKRMFVNNEHDLQVCKREIQIMRDLSGHKNIVGYIDSSINNVSSGDVWEVLILMDFCRGGQVVNLMNQRLQTGFTENEVLQIFCDTCEAVARLHQCKTPIIHRDLKVENILLHDRGHYVLCDFGSATNKFQNPQTEGVNAVEDEIKKYTTLSYRAPEMVNLYSGKIITTKADIWALGCLLYKLCYFTLPFGESQVAICDGNFTIPDNSRYSQDMHCLIRYMLEPDPDKRPDIYQVSYFSFKLLKKECPIPNVQNSPIPAKLPEPVKASEAAAKKTQPKARLTDPIPTTETSIAPRQRPKAGQTQPNPGILPIQPALTPRKRATVQPPPQAAGSSNQPGLLASVPQPKPQAPPSQPLPQTQAKQPQAPPTPQQTPSTQAQGLPAQAQATPQHQQQLFLKQQQQQQQPPPAQQQPAGTFYQQQQAQTQQFQAVHPATQQPAIAQFPVVSQGGSQQQLMQNFYQQQQQQQQQQQQQQLATALHQQQLMTQQAALQQKPTMAAGQQPQPQPAAAPQPAPAQEPAIQAPVRQQPKVQTTPPPAVQGQKVGSLTPPSSPKTQRAGHRRILSDVTHSAVFGVPASKSTQLLQAAAAEASLNKSKSATTTPSGSPRTSQQNVYNPSEGSTWNPFDDDNFSKLTAEELLNKDFAKLGEGKHPEKLGGSAESLIPGFQSTQGDAFATTSFSAGTAEKRKGGQTVDSGLPLLSVSDPFIPLQVPDAPEKLIEGLKSPDTSLLLPDLLPMTDPFGSTSDAVIGKVIISVSSVMHDMCACFKNDKYLVNQSLGNSPATPEAKAI,soluble
26,EERFGHLLHKVEWVSLGGGIHFTGEDYAVDAFCARLKAFSEKYGVQVYLEPGEAAITNSASLEVTVLDTLYNGKHLAVVDSSIEAHLLDLLIYRLNAKMAPNDGEHTYMVCGKSCLAGDIFGEYQFDRPLAIGDRLSFIDTAGYTMVKKNWFNGLKMPSIVVKQLDGSVEVVREFGFEDYVSSLS,not soluble
27,EEYPDGFAPMKPDQAEEAVLAGIALSACLIETNRRERFADRLRAAAGALREDWVVKIGDNHVAARLLDGLVTIPFDMDIAIEGAIEGESKSVVTDWR,not soluble
28,EHAKQASSYIPLDRLSISYCRSSGPGGQNVNKVNSKAEVRFHLASADWIEEPVRQKIALTHKNKINKAGELVLTSESSRYQFRNLAECLQKIRDMIAEA,soluble
29,EHMQHLAMKGARFDIVLLPSSPTAHGLEQVQFQVAANKGNPPRPLNKVASGGELARISLALQVVASQYTQVPTLIFDEVDTGIGGGVAEMVGKALRALGRKHQVLAVTHLPQVASCGENHWRVRKHSEGEQTVSEISILDEIQRIEEVARMLGGEVITDTTRQHAAELLQLASKNSLF,not soluble
